Measurements reported in the Human Domainome abundance scans (Beltran et al. 2025).
± gives the uncertainty stated by the source.

B1: GA-binding protein alpha chain, residues 172 to 250; numbered along this chain, Q06546 (parent)
chain: GYRKEQERLGIPYDPIQWSTDQVLHWVVWVMKEFSMTDIDLTTLNISGRELCSLNQEDFFQRVPRGEILWSHLELLRKY

Variants of: B1
Assay: abundance fitness (aPCA) (normalised: wild type 0, dead -1); higher = more abundant; growth selection in yeast, the domain comes from the species named
Settings: Homo sapiens

Row | Variant | abundance fitness
1 | GYRKEQERLGTPYDPIQWSTDQVLHWVVWVMKEFSMTDIDLTTLNISGRELCSLNQEDFFQRVPRGEILWSHLELLRKY | -0.75 ± 0.089
2 | GYRKEQERLGNPYDPIQWSTDQVLHWVVWVMKEFSMTDIDLTTLNISGRELCSLNQEDFFQRVPRGEILWSHLELLRKY | -0.818 ± 0.22
3 | GYRKEQERLGEPYDPIQWSTDQVLHWVVWVMKEFSMTDIDLTTLNISGRELCSLNQEDFFQRVPRGEILWSHLELLRKY | -0.924 ± 0.13
4 | GYRKEQERLGAPYDPIQWSTDQVLHWVVWVMKEFSMTDIDLTTLNISGRELCSLNQEDFFQRVPRGEILWSHLELLRKY | -0.651 ± 0.058
5 | GYRKEQERLGKPYDPIQWSTDQVLHWVVWVMKEFSMTDIDLTTLNISGRELCSLNQEDFFQRVPRGEILWSHLELLRKY | -1.21 ± 0.44
6 | GYRKEQERLGHPYDPIQWSTDQVLHWVVWVMKEFSMTDIDLTTLNISGRELCSLNQEDFFQRVPRGEILWSHLELLRKY | -0.644 ± 0.25
7 | GYRKEQERLGVPYDPIQWSTDQVLHWVVWVMKEFSMTDIDLTTLNISGRELCSLNQEDFFQRVPRGEILWSHLELLRKY | -0.342 ± 0.031
8 | GYRKEQERLGMPYDPIQWSTDQVLHWVVWVMKEFSMTDIDLTTLNISGRELCSLNQEDFFQRVPRGEILWSHLELLRKY | -0.312 ± 0.045
9 | GYRKEQERLGSPYDPIQWSTDQVLHWVVWVMKEFSMTDIDLTTLNISGRELCSLNQEDFFQRVPRGEILWSHLELLRKY | -0.842 ± 0.075
10 | GYRKEQERLGYPYDPIQWSTDQVLHWVVWVMKEFSMTDIDLTTLNISGRELCSLNQEDFFQRVPRGEILWSHLELLRKY | -0.238 ± 0.061
11 | GYRKEQERLGQPYDPIQWSTDQVLHWVVWVMKEFSMTDIDLTTLNISGRELCSLNQEDFFQRVPRGEILWSHLELLRKY | -1.01 ± 0.33
12 | GYRKEQERLGLPYDPIQWSTDQVLHWVVWVMKEFSMTDIDLTTLNISGRELCSLNQEDFFQRVPRGEILWSHLELLRKY | -0.191 ± 0.035
13 | GYRKEQERLGDPYDPIQWSTDQVLHWVVWVMKEFSMTDIDLTTLNISGRELCSLNQEDFFQRVPRGEILWSHLELLRKY | -0.921 ± 0.34
14 | GYRKEQERLGGPYDPIQWSTDQVLHWVVWVMKEFSMTDIDLTTLNISGRELCSLNQEDFFQRVPRGEILWSHLELLRKY | -0.752 ± 0.046
15 | GYRKEQERLGPPYDPIQWSTDQVLHWVVWVMKEFSMTDIDLTTLNISGRELCSLNQEDFFQRVPRGEILWSHLELLRKY | -0.928 ± 0.13
16 | GYRKEQERLGFPYDPIQWSTDQVLHWVVWVMKEFSMTDIDLTTLNISGRELCSLNQEDFFQRVPRGEILWSHLELLRKY | -0.263 ± 0.071
17 | GYRKEQERLGCPYDPIQWSTDQVLHWVVWVMKEFSMTDIDLTTLNISGRELCSLNQEDFFQRVPRGEILWSHLELLRKY | -0.487 ± 0.058

Row | Variant | abundance fitness
18 | GYRKEQERLGRPYDPIQWSTDQVLHWVVWVMKEFSMTDIDLTTLNISGRELCSLNQEDFFQRVPRGEILWSHLELLRKY | -0.808 ± 0.062
19 | GYRKEQERLGIKYDPIQWSTDQVLHWVVWVMKEFSMTDIDLTTLNISGRELCSLNQEDFFQRVPRGEILWSHLELLRKY | -0.762 ± 0.19
20 | GYRKEQERLGIIYDPIQWSTDQVLHWVVWVMKEFSMTDIDLTTLNISGRELCSLNQEDFFQRVPRGEILWSHLELLRKY | -0.912 ± 0.33
21 | GYRKEQERLGINYDPIQWSTDQVLHWVVWVMKEFSMTDIDLTTLNISGRELCSLNQEDFFQRVPRGEILWSHLELLRKY | -0.542 ± 0.2
22 | GYRKEQERLGITYDPIQWSTDQVLHWVVWVMKEFSMTDIDLTTLNISGRELCSLNQEDFFQRVPRGEILWSHLELLRKY | -0.56 ± 0.077
23 | GYRKEQERLGIYYDPIQWSTDQVLHWVVWVMKEFSMTDIDLTTLNISGRELCSLNQEDFFQRVPRGEILWSHLELLRKY | -0.707 ± 0.16
24 | GYRKEQERLGIDYDPIQWSTDQVLHWVVWVMKEFSMTDIDLTTLNISGRELCSLNQEDFFQRVPRGEILWSHLELLRKY | -0.34 ± 0.1
25 | GYRKEQERLGIVYDPIQWSTDQVLHWVVWVMKEFSMTDIDLTTLNISGRELCSLNQEDFFQRVPRGEILWSHLELLRKY | -0.724 ± 0.035
26 | GYRKEQERLGIEYDPIQWSTDQVLHWVVWVMKEFSMTDIDLTTLNISGRELCSLNQEDFFQRVPRGEILWSHLELLRKY | -0.478 ± 0.069
27 | GYRKEQERLGIFYDPIQWSTDQVLHWVVWVMKEFSMTDIDLTTLNISGRELCSLNQEDFFQRVPRGEILWSHLELLRKY | -0.949 ± 0.22
28 | GYRKEQERLGICYDPIQWSTDQVLHWVVWVMKEFSMTDIDLTTLNISGRELCSLNQEDFFQRVPRGEILWSHLELLRKY | -0.494 ± 0.072
29 | GYRKEQERLGIWYDPIQWSTDQVLHWVVWVMKEFSMTDIDLTTLNISGRELCSLNQEDFFQRVPRGEILWSHLELLRKY | -0.98 ± 0.14
30 | GYRKEQERLGIRYDPIQWSTDQVLHWVVWVMKEFSMTDIDLTTLNISGRELCSLNQEDFFQRVPRGEILWSHLELLRKY | -0.969 ± 0.078
31 | GYRKEQERLGIAYDPIQWSTDQVLHWVVWVMKEFSMTDIDLTTLNISGRELCSLNQEDFFQRVPRGEILWSHLELLRKY | -0.3 ± 0.033
32 | GYRKEQERLGIMYDPIQWSTDQVLHWVVWVMKEFSMTDIDLTTLNISGRELCSLNQEDFFQRVPRGEILWSHLELLRKY | -0.903 ± 0.12
33 | GYRKEQERLGIGYDPIQWSTDQVLHWVVWVMKEFSMTDIDLTTLNISGRELCSLNQEDFFQRVPRGEILWSHLELLRKY | -0.577 ± 0.041
34 | GYRKEQERLGILYDPIQWSTDQVLHWVVWVMKEFSMTDIDLTTLNISGRELCSLNQEDFFQRVPRGEILWSHLELLRKY | -0.955 ± 0.085
